Experimental findings from patent publication US20210101973A1 are described below.

Test [1] addresses GHSR on the PathHunter U2OS GHSR beta-Arrestin Cell Line (DiscoverX), Q92847. In words: cell-based or functional assay.
For test [2], the target named is wild-type GHSR stably expressed in an independent cell line (calcium mobilization assay), Q92847. The test can be described thus: cell-based or functional assay.

Ends that are not written are not given here.

Sequence of wild-type GHSR stably expressed in an independent cell line (calcium mobilization assay), Q92847 (Q92847 whole entry): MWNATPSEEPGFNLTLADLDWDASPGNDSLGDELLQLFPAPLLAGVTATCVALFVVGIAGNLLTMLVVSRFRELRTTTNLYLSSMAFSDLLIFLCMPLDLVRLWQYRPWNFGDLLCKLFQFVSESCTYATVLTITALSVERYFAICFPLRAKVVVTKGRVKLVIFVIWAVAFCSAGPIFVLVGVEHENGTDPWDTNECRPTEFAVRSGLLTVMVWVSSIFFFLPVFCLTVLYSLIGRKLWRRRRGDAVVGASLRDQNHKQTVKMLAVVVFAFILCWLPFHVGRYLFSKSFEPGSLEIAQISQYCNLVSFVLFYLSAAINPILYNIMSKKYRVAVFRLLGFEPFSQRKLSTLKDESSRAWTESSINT

B1: synthetic LEAP2 peptide (mature peptide of human LEAP2) (peptide)
peptide: MTPFWRGVSLRPIGASCRDDSECITRLCRKRRCSLSVAQE
modifications: disulfide (positions not given here); also: labeled with Alexa 647, site not given here
The molecule B1 came in with an IC50 of inhibition of ghrelin-induced GHSR activation, PathHunter beta-arrestin assay, antagonist format (ghrelin 13 nM) in test [1] of 6.74 nM. Further, the IC50 of abrogation of ghrelin-induced GHSR activity, calcium mobilization (FLUO-3) in test [2] worked out at 11.6 nM.
